The values that follow come from patent US20230340151A1 (Pfizer, published 2023).

In experiment [1] the target is T1, GUCY2C_ECD Peptide 4 (human).
T1 peptide: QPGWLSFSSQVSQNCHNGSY
Briefly: peptide DELFIA ELISA.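 Also: epitope mapping using overlapping 20-mer GUCY2C peptides covering residues 1-440, extracellular into transmembrane domain, coated at 20 µg/ml as target antigen and probed with antibodies or GUCY2C-CD3 bispecifics.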
Description: (§1) Arrays were reconstituted with acetonitrile to 100 μg/ml and were then further diluted to 20 μg/ml with sodium carbonate/bicarbonate buffer. Purified antibodies or GUCY2c-CD3 bispecifics were then tested by Delfia ELISA for binding to the different peptides using Delfia ELISA methods previously discussed, with diluted peptides used as the target antigen.

For experiment [2], the target named is T2, GUCY2C_ECD Peptide 17 (human).
T2 peptide: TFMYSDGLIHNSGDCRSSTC
The experiment is described as follows: peptide DELFIA ELISA.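 Also: epitope mapping using overlapping 20-mer GUCY2C peptides covering residues 1-440, extracellular into transmembrane domain, coated at 20 µg/ml as target antigen and probed with antibodies or GUCY2C-CD3 bispecifics.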
Description: as §1

Experiment [3] has as its target T3, GUCY2C_ECD Peptide 29 (human).
T3 peptide: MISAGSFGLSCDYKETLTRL
Briefly: peptide DELFIA ELISA.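 Also: epitope mapping using overlapping 20-mer GUCY2C peptides covering residues 1-440, extracellular into transmembrane domain, coated at 20 µg/ml as target antigen and probed with antibodies or GUCY2C-CD3 bispecifics.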
Description: as §1

Experiment [4] has as its target T4, GUCY2C_ECD Peptide 37 (human).
T4 peptide: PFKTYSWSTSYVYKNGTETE
Briefly: peptide DELFIA ELISA.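 Also: epitope mapping using overlapping 20-mer GUCY2C peptides covering residues 1-440, extracellular into transmembrane domain, coated at 20 µg/ml as target antigen and probed with antibodies or GUCY2C-CD3 bispecifics.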
Description: as §1

For experiment [5], the target named is T5, GUCY2C_ECD Peptide 65 (human).
T5 peptide: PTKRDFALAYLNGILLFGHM
Briefly: peptide DELFIA ELISA.
Description: as §1

Experiment [6] concerns the target T6, GUCY2C_ECD Peptide 87 (human).
T6 peptide: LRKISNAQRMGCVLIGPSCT
Briefly: peptide DELFIA ELISA.
Description: as §1

For experiment [7], the target named is T7, Murine GUCY2C-ECD cleaved (mouse, UniProt Q3UWA6 20-433).
T7 sequence: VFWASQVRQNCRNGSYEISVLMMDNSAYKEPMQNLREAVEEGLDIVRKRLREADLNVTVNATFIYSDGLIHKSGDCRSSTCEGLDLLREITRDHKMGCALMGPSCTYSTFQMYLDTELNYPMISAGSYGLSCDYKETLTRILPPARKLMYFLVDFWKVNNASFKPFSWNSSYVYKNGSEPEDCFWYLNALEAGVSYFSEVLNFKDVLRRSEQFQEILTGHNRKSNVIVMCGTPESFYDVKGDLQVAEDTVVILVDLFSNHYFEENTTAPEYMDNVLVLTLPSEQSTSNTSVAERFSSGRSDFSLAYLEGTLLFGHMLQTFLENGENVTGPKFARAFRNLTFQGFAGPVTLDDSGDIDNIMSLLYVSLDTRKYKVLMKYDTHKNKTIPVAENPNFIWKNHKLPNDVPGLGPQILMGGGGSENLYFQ
The experiment is described as follows: SPR, GUCY2c directly immobilized, 25 C.
Description: Human GUCY2c, cyno GUCY2c and mouse GUCY2c were directly immobilized onto three different flow cells of a CM5 Sensor Chip (BR100530, GE Healthcare) surface using an amine coupling kit (BR100050, GE Healthcare) according to the manufacturer's protocol. […] Flow cell 1 was used as a reference flow cell. […] The dissociation was monitored for 400 seconds and the surface was regenerated with 10 mM Glycine pH 2.1. The running and sample buffer was 10 mM HEPES pH 7.4, 0.15 M NaCl, 3 mM EDTA, 0.05% P-20 (HBS-EP+). The data were double referenced. Binding affinities and rate constants were determined by fitting the resulting sensorgram data to a 1:1 Langmuir model in BIACORE™ T200 Evaluation software version 3.0 (GE Healthcare).

For experiment [8], the target named is T8, Cynomolgus CD3 epsilon-delta (cynomolgus).
T8 chain: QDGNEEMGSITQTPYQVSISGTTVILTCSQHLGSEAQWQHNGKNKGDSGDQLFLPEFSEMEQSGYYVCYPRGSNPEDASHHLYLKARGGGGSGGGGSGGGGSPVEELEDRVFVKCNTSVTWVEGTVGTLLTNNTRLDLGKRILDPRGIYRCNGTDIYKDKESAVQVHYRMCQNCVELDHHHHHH
Briefly: SPR, CD3 captured by anti-His, printed 25 C (Table 33F).

B1: GUCY2C-1608 (bispecific antibody)
chain 1: DIQLTQSPSSLSASVGDRVTITCRASESVDYYGSSLLQWYQQKPGKAPKLLIYAASKLASGVPSRFSGSGSGTDFTLTISSLQPEDFATYYCQQTRKAYTFGQGTKLEIKGGGSGGGGEVQLVESGGGLVQPGGSLRLSCAASGFTFSDYYMTWVRQAPGKGLEWVAFIRNQARGYTSDHNPSVKGRFTISRDNAKNSLYLQMNSLRAEDTAVYYCARDRPSYYVLDYWGQGTTVTVSSGCPPCPAPEAAGAPSVFLFPPKPKDTLMISRTPEVTCVVVDVSHEDPEVKFNWYVDGVEVHNAKTKPREEQYNSTYRVVSVLTVLHQDWLNGKEYKCKVSNKALPAPIEKTISKAKGQPREPQVCTLPPSREEMTKNQVSLWCLVKGFYPSDIAVEWESNGQPENNYKTTPPVLDSDGSFFLYSKLTVDKSRWQQGNVFSCSVMHEALHNHYTQKSLSLSPG
chain 2: DIQMTQSPSSLSASVGDRVTITCTSSQSLFNVRSQKNYLAWYQQKPGKAPKLLIYWASTRESGVPSRFSGSGSGTDFTLTISSLQPEDFATYYCKQSYDLFTFGGGTKVEIKGGGGSGGGGEVQLVESGGGLVQPGGSLRLSCAASGFTFSSYWMHWVRQAPGKGLEWIGEIKPSNELTNVHEKFKDRFTISVDKAKNSAYLQMNSLRAEDTAVYYCTRTITTTEGYWFFDVWGQGTLVTVSSGCPPCPAPEAAGAPSVFLFPPKPKDTLMISRTPEVTCVVVDVSHEDPEVKFNWYVDGVEVHNAKTKPREEQYNSTYRVVSVLTVLHQDWLNGKEYKCKVSNKALPAPIEKTISKAKGQPREPQVYTLPPCREEMTKNQVSLSCAVKGFYPSDIAVEWESNGQPENNYKTTPPVLDSDGSFFLVSKLTVDKSRWQQGNVFSCSVMHEALHNHYTQKSLSLSPG
notes: also called GUCY2c CD3 bispecific
Take B1: the “DELFIA TRF” value in experiment [1] was 125; in experiment [2], 112; in experiment [3] it was 101; in experiment [4] it was 107; in experiment [5], 103; in experiment [6], 102. Moreover, the Kd in experiment [7] amounted to 0.0173 µM; in experiment [8], 0.13 µM. Also, the figures for the koff in experiment [7] and in experiment [8] were 0.00157 s⁻¹ and 0.0665 s⁻¹, respectively. In addition, the on-rate constant (kon) in experiment [7] came out at 91200 M⁻¹ s⁻¹; in experiment [8], 514000 M⁻¹ s⁻¹.
